Source: publication PMC6597010 (Cell, 2019)

Biological target: the molecule itself
Assay: cryo-EM structure

B1: C-terminal Strep-tag HsMCU (human mitochondrial calcium uniporter) (natural protein)
chain: VHQRIASWQNLGAVYCSTVVPSDDVTVVYQNGLPVISVRLPSRRERCQFTLKPISDSVGVFLRQLQEEDRGIDRVAIYSPDGVRVAASTGIDLLLLDDFKLVINDLTYHVRPPKRDLLSHENAATLNDVKTLVQQLYTTLCIEQHQLNKERELIERLEDLKEQLAPLEKVRIEISRKAEKRTTLVLWGGLAYMATQFGILARLTWWEYSWDIMEPVTYFITYGSAMAMYAYFVMTRQEYVYPEARDRQYLLFFHKGAKKSRFDLEKYNQLKDAIAQAEMDLKRLRDPLQVHLPLRQIGEKD
  stoichiometry N: 4

B2: human MCU/EMRE complex (one channel: MCU tetramer with four EMRE subunits) (complex)
chain 1: B1 chain
chain 2: VSAAWSGSGRSLVPSRSVIVTRSGAILPKPVKMSFGLLRVFSIVIPFLYVGTLISKNFAALLEEHDIFVPEDDDDDD
  stoichiometry N: 2
